# Data from the nanobody polyreactivity screen of Harvey et al. (2022).
# Assay: yeast display, Sf9 membrane polyspecificity reagent, FACS + sequencing; frameworks hold sequencing errors
# Summary of the method: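 A synthetic nanobody library was expressed on Saccharomyces cerevisiae BJ5465 by galactose induction for 36–48 hours. The library was stained for 1 hour at 4 °C with 10% biotinylated, detergent-solubilized Sf9 membrane reagent and enriched with streptavidin microbeads before FACS. Low and high (top ~1%) gates were set on anti-HA fluorescence for expression and streptavidin fluorescence for reagent binding, and each polyreactivity label reflects the gate of origin.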
row,Sequence,polyreactivity (PSR sort gate)
1,QVQLVESGGGLVQAGGSLRLSCAASGLTFRTYTMGWYRQAPGKERELVAAISSSGSTKYADSVKGRFTISRDNAKNTVYLQMICLKPEDTAVYYCAARGRIYFTQYGYWGQVTQVTVSS,high polyreactivity
2,QVQLVESGGGLVQAGGSLRLSCAASGLTFRVNAMGWYRQAPGKERELVAVISTDGGTTYYADSVKGRFTISRDNAKNTVYLQINSLKPEDTAVYYCAAKYAQVYIWVRQIHFDYWGQGTQVTVSS,low polyreactivity
3,QVQLVESGGGLVQAGGSLRLSCAASGLTFRVYAMGWYRQAPGKERELVAAISKRGGSTYYADSVKGRFTISRDNAKNTVYLQMNSLKPEDTAVYYCAAEPPPYEYVYWGQGTQVTVSS,high polyreactivity
4,QVQLVESGGGLVQAGGSLRLSCAASGLTFRYNAMGWYRQAHGKERELVARISRNGGRTYYADSVKGRFTISRDNAKNTVYLQMNSLKPEDSAVYYCNVVYFVTTSPGYDYWGQGTKVTVSS,high polyreactivity
5,QVQLVESGGGLVQAGGSLRLSCAASGLTFRYYAMGWYRQAPGKERELVAAITASVGSTYYADSVKGRFTISRDNAKNTVYLQMNSLKPEDTAVYYCAAEGTPGPGGGYYWGQGTQVTVSS,low polyreactivity
6,QVQLVESGGGLVQAGGSLRLSCAASGLTFRYYTMGLYRQAPGKERELVASITSGGITYYADSVKGRFTISRDNAKNTVYLQMYSLKPEDTAVYYCAKGSYRTTYGALGVKYGYWGQGTQVNVSS,high polyreactivity
7,QVQLVESGGGLVQAGGSLRLSCAASGLTFSDYAMGWYRQAPGKERELVAAITYNGGSTYYADSVKGRFTISRDNAKNTVYLQMNSLKPEDTAVYYCAADTDDVGLRDYWGQGTQVTVSS,low polyreactivity
8,QVQLVESGGGLVQAGGSLRLSCAASGLTFSDYAMGWYRQATGKEREFVAAITRNGGSTRYADSVKGRFTISRDNAKNTVYLQMNSLKPEDTAVYYCAADWSYEYGYWGQGTQVTVSS,low polyreactivity
9,QVQLVESGGGLVQAGGSLRLSCAASGLTFSFYAMGWYIPAPGKDTERVAAISSGGGITYYADSVKGRFTISRDNAKNTVYLQMNSLKPEDTALYYCNTDDYYQYWVPSEYYYCGQGTQVTVSS,low polyreactivity
10,QVQLVESGGGLVQAGGSLRLSCAASGLTFSIYAMGWYRPAPGKERELVAGISQSGGSTYADSVKGRFTISRDNAKNTVYLQMNSLKPEDTAVYYCAKEFEWVGSPSTVDGLEYWGHGTQVTVSS,low polyreactivity
11,QVQLVESGGGLVQAGGSLRLSCAASGLTFSKYAMGWYRQAPGKERELVAAINRSDGGTYYADSVKGRFTISRDNAKNTVYLQMNSLKPEDTAVYYCNAVVLYGWYGRRYSSRLDYWGQGTQVTVSS,high polyreactivity
12,QVQLVESGGGLVQAGGSLRLSCAASGLTFSQNAMGWYRQAPGKERELVAAITRSGSTTHYADSVKGRFTISRDNAKNTVYLQMNSLKPEDTAVYYCAAVAFQTRYYYWGQGTQVTVSS,high polyreactivity
13,QVQLVESGGGLVQAGGSLRLSCAASGLTFSRYAMGWYRQATGKERELVAAITSNGGSTYYADSVKGRFTISRDNAKNTVYLQMNSLKPDDTAVYYCATGYPIDLGREFDYWGQGIQVTVSS,high polyreactivity
14,QVQLVESGGGLVQAGGSLRLSCAASGLTFSRYARGWYRQAPGKERELVAAISGSGGSTYYADSVKGRFTISRDNAKNTVYLQMNSLKPEDTAVYYCNKYRATNSARDYWGQGTQVTVSS,high polyreactivity
15,QVQLVESGGGLVQAGGSLRLSCAASGLTFSTNDMGWYRQAPGKEREFVAAISFNGGSTYYADSVKGRFTLSRDNAKNTVYLQMNSLKPEDTAVYYCAAGSDYGLYYGFDFWGQGTQVTVSS,high polyreactivity
16,QVQLVESGGGLVQAGGSLRLSCAASGLTFSVYAMGWYRQAPGKDRELVAAISGSGGSTYYADSVKGRFTISRDNAKNTVYLQMNSLKPEDTAVYYCAADGRYFRAVFRLYDYWGQGTQVTVSS,low polyreactivity
17,QVQLVESGGGLVQAGGSLRLSCAASGLTFSYYAMGWSRQAPGKERELVAAISRGGRTNYADSVKGRFTISRDNAKNTVYLQMNSLKPEDTAVYYCAARFVVQGHSSPYDYWGQGTQVTVSS,high polyreactivity
18,QVQLVESGGGLVQAGGSLRLSCAASGLTFSYYAMGWYRQAPGKERELVAASSWSGGSTYYADSVKGRFTISRDNAKNTVYLQMNSLKPDDTAVYYCAKYPNRHYWYDYWGQGTQVTVSS,low polyreactivity
19,QVQLVESGGGLVQAGGSLRLSCAASGLTFTPNAMGWYRQAPGKEREFVAAITWRGGRTYYADSVKGRFTISRDNAKNTVYLQMNSLKPEDTAVYYCAADSFKGYDYWGQGTQVTVSS,high polyreactivity
20,QVQLVESGGGLVQAGGSLRLSCAASGLTFTTYAMGWYRQAPGKERELVAAISRRGSRTYYADSVKGRFTISRDNAKNTVYLQMNSLKPEDTAVYYCARRAGSYPYGYTGYDYWGQGTQVTVSS,high polyreactivity

row,Sequence,polyreactivity (PSR sort gate)
1,QVQLVESGGGLVQAGGSLRLSCAASGLTFTYNAMGWYRQAPGKERELVAAISKRGGSTYYADSVKGRFTISRDNAKNTVYLQMNSLKPEDTAVYYCNARTTTRSYPAFDYWGQGTQVTVSS,high polyreactivity
2,QVQLVESGGGLVQAGGSLRLSCAASGLTFVAYGMGWYRQAPGKERELVATIRWRGGSTYYADSVKGRFTISRDNAKNTVYLQMNSLKPEDTAVYYCAATRARRWSSPGQYGYWGQGTQVTVSS,high polyreactivity
3,QVQLVESGGGLVQAGGSLRLSCAASGLTFVTYAKGWYRQAPGKERELVAAISYSGGSTYYADSVKGRFTISRDNAKNTVYLQMNSLKPEDTAVYYCNARSPQPDGRPPYNYWGQGTQVTVSS,high polyreactivity
4,QVQLVESGGGLVQAGGSLRLSCAASGLTFVVYAMGWYRQATGKERELVASITSSGGRTYYADSVKGRFTISRDNAKNTVYLQMTSLKPEDTAVYYCAAVRRRTRYGYRYDYWGQGTQVTVSS,high polyreactivity
5,QVQLVESGGGLVQAGGSLRLSCAASGLTFVYNAMGWYRQAPGKERELVATISRGGSTYYADSVKGRFTISLDNAMNTVYLQMTSLKPEDTAVYYCNDDGYYDYDYGYWGQGTQVTVSS,low polyreactivity
6,QVQLVESGGGLVQAGGSLRLSCAASGLTFVYYAMGWYRQAPGKERELVAAISRSGGATYYADSVKGRFTISRDNAKNTVYLQMNSLKPEDTAVYYCAADATKWIGVVTMDYWGQGTQVTVAS,high polyreactivity
7,QVQLVESGGGLVQAGGSLRLSCAASGLTFVYYAMGWYRQAPGKERELVASISSTGRTYYADSVKGRFTISRDNAKNTVYLQMNSLKPEDTAVYFSAARSTYFKADYWGQGTQVTVSS,high polyreactivity
8,QVQLVESGGGLVQAGGSLRLSCAASGLTFVYYAMGWYRQAPGKERELVAVISSSGGSTYYADSVKGRFTISRDNAKNTVYLQMNSLKPEDTAVYYCAAPRQVYYQTDNDYWGQGTLVTVSS,high polyreactivity
9,QVQLVESGGGLVQAGGSLRLSCAASGLTFWHYAMGWYRQAHGKERELVAAISSGGRTYYADSVKGRFTISRDNAKNTVYLKMNSLKPEDSAVYYCAARGPQYYVYGYDYWGQGTQVTVSS,high polyreactivity
10,QVQLVESGGGLVQAGGSLRLSCAASGLTFWNNAMGWYRQAPGKERELVARINNGDNTYYADSVKGRFTISRDNAKNTVYLQMNSLKPEDTAVYYCAAKRYSNIPWIHDISTFYYWGQGTQVTVSS,low polyreactivity
11,QVQLVESGGGLVQAGGSLRLSCAASGLTFWYYAMGWYRQAPGKERELVAAITISGGSTYYADSVKGRFTISRDNAKNTVYLQMNRLQPEDTAVYYCAKTFSYTGRYWGYDYWGKGTQVTVSS,high polyreactivity
12,QVQLVESGGGLVQAGGSLRLSCAASGLTFYANAMGWYRQAPGKERELVATISVGTDSTNYADSVKGRFTISRDNAKYTVYLQMNRLKPEDTAVYYCNALYEEYYAQDPYDYWGQGTQVTVSS,high polyreactivity
13,QVQLVESGGGLVQAGGSLRLSCAASGLTFYGYGMGWYRQAPGKERELVASITSGGNTYYADSVKGRFTISRDNAKNTVYLRMNSLKPEDTAVYYCAVTAIALYYSSGYYWGQGTQVTVSS,low polyreactivity
14,QVQLVESGGGLVQAGGSLRLSCAASGLTFYHYAMGWYRQAPGKERELVADISSGGSTSYADSVKGRFTISRDNAKNTVYLQMNSLKPEDTAVFYCAADYTWERYHRQIFRLDYWGQGTQVTVSS,low polyreactivity
15,QVQLVESGGGLVQAGGSLRLSCAASGLTFYLYAMGWYRQAPGKERELVAAISSSGSSTYYADSVKGRFTISRDNAKHTVYLQMNSLKPEDTAVYYCAAVASRGWGRYGYWGQGTQVTVSS,high polyreactivity
16,QVQLVESGGGLVQAGGSLRLSCAASGLTFYLYAMGWYRQAPGKERELVAAITTSGGSTYYADSVKGRFTISRDNAKNTVYLQMNSLKPEDTAVYDCATQGAIRGYGYWGQGTQVTVSS,high polyreactivity
17,QVQLVESGGGLVQAGGSLRLSCAASGLTFYQYAMGWYRQAPGKERELVAAISKSAGSTYYADSVKGRFTISRDNAKNTVYLQMNSLKPEDTAVYYCNAARPFTRVPRQTWKMGYWGQGTQVTVSS,high polyreactivity
18,QVQLVESGGGLVQAGGSLRLSCAASGLTFYRYAMGWYRQAPGKERELVAAISFSGGSTYYADSVKGRFTISRDNAKNTVYLQMNSLKPEDTAVYYCAKVDTPGSQRYITPEEGPEYDYWGQGTQVTVSS,high polyreactivity
19,QVQLVESGGGLVQAGGSLRLSCAASGLTFYRYAMGWYRQAPGKERELVAAISSSGGSTYYADSVKGRFTISRDNAKNTVYLQMNSLKPEDTAVYYCAAKRVSVPYGYWGQGTQVTVSS,high polyreactivity
20,QVQLVESGGGLVQAGGSLRLSCAASGLTFYSYAMGWSRQAPGKERELVAAITSSGSITYYADSVKGRFTISRDNAKNTVYLQMNSLKPEDTAVYYCAARPYRVRGQRFEGNYWGQGTQVTVSS,high polyreactivity
